Measurements published in patent US10562935B2, “Stapled peptides and uses thereof” (London Health Sciences Centre Research Inc., priority 2015, dated 2020).
Bridges are numbered along the chain shown (N, C = ends).

How the values were obtained:
[1] = Circular dichroism (CD) spectroscopy of linear and stapled peptides in water or 40% TFE/water (Example 3); format: physicochemical; settings: for [0]208 mean residue ellipticity: λ = 208 nm; for [0]222 mean residue ellipticity: λ = 222 nm
Method in brief: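 Spectra 180–260 nm at 20 °C, 0.5 mM N-acetylated, C-amidated peptides in 0.1M phosphate buffer (water) or 40% TFE/water, 1 mm path, five scans averaged, buffer baseline subtracted. Mean residue ellipticity reported at 222 and 208 nm with the 222/208 ratio as helicity index.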

[2] = Function blocking score: total percent inhibition over migration, invasion, inflammation and fibrosis assays divided by number of assays; format: cell-based; settings: total percent inhibition for all assays tested divided by number of assays
Procedure: As documented in the Examples hereinabove, a variety of cyclized peptides were produced that contained the HA-binding domain 1 (HABD1), HA-binding domain 2 (HABD2), or both HABD1 and HABD2. These peptides were evaluated for helicity, direct HA binding and in a number of cell-based bioassays (effects on migration, invasion, NFkB activation, and TGFβ1 production) that are relevant to inflammation and fibrosis. The relationships amongst helicity, HA-binding, and biofunction were evaluated. Peptides were divided into three groups for this analysis: (1) peptides containing HABD1 (“HABD1”); (2) peptides containing HABD2 (“HABD2”); and peptides containing most or all of HABD1 and all of HABD2 (“HABD1+HABD2”). R^2 values were calculated to quantify the relationships between helicity, HA-binding, and biofunction were evaluated.
The results of this analysis for the HABD1 peptides are shown below in Tables 15 and 16. Table 16 provides a function blocking scores for each of the tested peptides and provides R^2 values showing the relationship between HA binding and helicity (“HA binding vs. CD”), HA binding and function-blocking score (“HA binding vs. FBS”) and helicity vs. function-blocking score (“CD vs. FBS”). The same type of summaries are provided for the HABD2 peptides in Tables 17 and 18 below, and for the HABD1+HABD2 peptides in Tables 19 and 20 below.
Function blocking scores were calculated as the total percent inhibition achieved by the peptide for all assays the peptides were tested in, divided by the number of assays. Assays included migration, invasion, inflammation and fibrosis assays. Not all peptides were tested all of the assays. All peptides were included for deriving R^2 values (Pearson's formula).

[3] = tested on: IMR90 human fetal lung fibroblasts; test: Fibrosis assay: active TGF-β levels in TGF-β treated fibroblasts (ELISA); format: cell-based; settings: for Fibrosis (% inhib.): % inhibition relative to positive control; for inhibition of fibrosis (active TGF-β, in words): 10 ng/mL peptide, 48 hours, compared to +TGFβ1 control
Procedure: Compounds 132, 133, 135, 150, 152, 157-161, 265-269, 275, 277, and 278 were evaluated for their ability to inhibit fibrosis. IMR90 human fetal lung fibroblasts were obtained from ATCC and maintained in DMEM supplemented with 10% fetal bovine serum. In order to examine the effect of peptides on myofibroblast differentiation, 80% confluent cultures were serum starved overnight prior to addition of TGF-β (2 ng/mL, R&D Systems). Cells were treated with TGF-β for 24 hours prior to addition of peptides (10 ng/mL). 48 hours after addition of peptides, culture supernatants were collected and levels of active TGF-β measured using commercially available TGF-β ELISA (Quantikine, R&D Systems).
Values are the Mean and SDM n=3 replicates. *p<0.05, **p<0.01, ***p<0.001 when compared to the +TGFβ1 control. In FIG. 47, where bars are labeled with two compound numbers (“133/150” and “135/152”) this means that the data were pooled for the indicated compounds, i.e., for the non-acetylated and acetylated versions of the indicated peptides.

[4] = [θ]222/[θ]208 ratio in water, summary tables 15, 17, 19
[5] = as repeated in tables 16, 18, 20

Substance | [θ]222/[θ]208 ratio of ellipticities [1, 4] | [θ]222/[θ]208 ratio of ellipticities [1, 5] | [0]222/[0]208 ratio of ellipticities ([1]; in 40% TFE/water) | [0]222/[0]208 ratio of ellipticities ([1]; in water) | [0]208 mean residue ellipticity ([1]; in water) [deg cm^2 dmol^−1] | [0]222 mean residue ellipticity ([1]; in 40% TFE/water) [deg cm^2 dmol^−1] | [0]222 mean residue ellipticity ([1]; in water) [deg cm^2 dmol^−1] | Function blocking score (FBS) [2] | Fibrosis (% inhib.) [3] [% inhib.] | [0]208 mean residue ellipticity ([1]; in 40% TFE/water) [deg cm^2 dmol^−1] | [0]208 mean residue ellipticity at λ=208 nm ([1]; 40% TFE/water) [deg cm^2 dmol^−1] | [0]222/[0]208 ratio of ellipticities ([1]; 40% TFE/water) | [0]222 mean residue ellipticity at λ=222 nm ([1]; 40% TFE/water) [deg cm^2 dmol^−1] | alpha-helical character by CD (in words) ([1]; in water) | [0]208 mean residue ellipticity at λ=208 nm ([1]; water) [deg cm^2 dmol^−1] | [0]222/[0]208 ratio of ellipticities ([1]; water) | [0]222 mean residue ellipticity at λ=222 nm ([1]; water) [deg cm^2 dmol^−1] | inhibition of fibrosis (active TGF-β, in words) [3]
Ac-(cyclo-6,10)-NLKQK[EKHVK]KLKDE-NH2 (Ac-NLKQKEKHVKKLKDE-NH2; lactam 6-10; SMILES CC(=O)N[C@@H](CC(N)=O)C(=O)N[C@@H](CC(C)C)C(=O)N[C@@H](CCCCN)C(=O)N[C@@H](CCC(N)=O)C(=O)N[C@@H](CCCCN)C(=O)N[C@H]1CCC(=O)NCCCC[C@@H](C(=O)N[C@@H](CCCCN)C(=O)N[C@@H](CC(C)C)C(=O)N[C@@H](CCCCN)C(=O)N[C@@H](CC(=O)O)C(=O)N[C@@H](CCC(=O)O)C(N)=O)NC(=O)[C@H](C(C)C)NC(=O)[C@H](Cc2c[nH]cn2)NC(=O)[C@H](CCCCN)NC1=O) [Compound 159] | 0.44 | 0.44 | 0.85 | 0.44 | -5.95E+03 | -1.26E+04 | -2.61E+03 | 17 | 50 | – | – | – | – | – | – | – | – | –
Ac-(cyclo-7,11)-NLKQKI[EHVVK]LKDE-NH2 (Ac-NLKQKIEHVVKLKDE-NH2; lactam 7-11; SMILES CC[C@H](C)[C@H](NC(=O)[C@H](CCCCN)NC(=O)[C@H](CCC(N)=O)NC(=O)[C@H](CCCCN)NC(=O)[C@H](CC(C)C)NC(=O)[C@H](CC(N)=O)NC(C)=O)C(=O)N[C@H]1CCC(=O)NCCCC[C@@H](C(=O)N[C@@H](CC(C)C)C(=O)N[C@@H](CCCCN)C(=O)N[C@@H](CC(=O)O)C(=O)N[C@@H](CCC(=O)O)C(N)=O)NC(=O)[C@H](C(C)C)NC(=O)[C@H](C(C)C)NC(=O)[C@H](Cc2c[nH]cn2)NC1=O) [Compound 160] | 0.55 | 0.55 | 0.86 | 0.55 | -6.98E+03 | -1.42E+04 | -3.85E+03 | 0 | 0 | -1.65E+04 | – | – | – | – | – | – | – | –
Ac-(cyclo-7-11, cyclo-28-32)-NLKQKI[EHVVK]LKDENSQLKSEVSKLR[EQLVK]RKQN-NH2 (Ac-NLKQKIEHVVKLKDENSQLKSEVSKLREQLVKRKQN-NH2; lactam 7-11, 28-32; SMILES CC[C@H](C)[C@H](NC(=O)[C@H](CCCCN)NC(=O)[C@H](CCC(N)=O)NC(=O)[C@H](CCCCN)NC(=O)[C@H](CC(C)C)NC(=O)[C@H](CC(N)=O)NC(C)=O)C(=O)N[C@H]1CCC(=O)NCCCC[C@@H](C(=O)N[C@@H](CC(C)C)C(=O)N[C@@H](CCCCN)C(=O)N[C@@H](CC(=O)O)C(=O)N[C@@H](CCC(=O)O)C(=O)N[C@@H](CC(N)=O)C(=O)N[C@@H](CO)C(=O)N[C@@H](CCC(N)=O)C(=O)N[C@@H](CC(C)C)C(=O)N[C@@H](CCCCN)C(=O)N[C@@H](CO)C(=O)N[C@@H](CCC(=O)O)C(=O)N[C@H](C(=O)N[C@@H](CO)C(=O)N[C@@H](CCCCN)C(=O)N[C@@H](CC(C)C)C(=O)N[C@@H](CCCNC(=N)N)C(=O)N[C@H]2CCC(=O)NCCCC[C@@H](C(=O)N[C@@H](CCCNC(=N)N)C(=O)N[C@@H](CCCCN)C(=O)N[C@@H](CCC(N)=O)C(=O)N[C@@H](CC(N)=O)C(N)=O)NC(=O)[C@H](C(C)C)NC(=O)[C@H](CC(C)C)NC(=O)[C@H](CCC(N)=O)NC2=O)C(C)C)NC(=O)[C@H](C(C)C)NC(=O)[C@H](C(C)C)NC(=O)[C@H](Cc2c[nH]cn2)NC1=O) [Compound 278] | 0.74 | 0.74 | – | 0.74 | – | – | – | 12 | 0 | – | -2.44E04 | 0.86 | -2.12E04 | greatest alpha-helical character | -1.33E+04 | 0.74 | -9.95E+03 | strong trend towards inhibition of fibrosis
Ac-(cyclo-8,12)-NLKQKIK[EVVKK]KDE-NH2 (Ac-NLKQKIKEVVKKKDE-NH2; lactam 8-12; SMILES CC[C@H](C)[C@H](NC(=O)[C@H](CCCCN)NC(=O)[C@H](CCC(N)=O)NC(=O)[C@H](CCCCN)NC(=O)[C@H](CC(C)C)NC(=O)[C@H](CC(N)=O)NC(C)=O)C(=O)N[C@@H](CCCCN)C(=O)N[C@H]1CCC(=O)NCCCC[C@@H](C(=O)N[C@@H](CCCCN)C(=O)N[C@@H](CC(=O)O)C(=O)N[C@@H](CCC(=O)O)C(N)=O)NC(=O)[C@H](CCCCN)NC(=O)[C@H](C(C)C)NC(=O)[C@H](C(C)C)NC1=O) [Compound 161] | 0.31 | 0.31 | 0.82 | 0.31 | -5.85E+03 | -1.60E+04 | -1.80E+03 | 22 | 38 | -1.96E+04 | – | – | – | decreased helicity | – | – | – | –
Ac-(cyclo-10-14, cyclo-15-19)-KIKHVVKLK[EENSK][EKSEK]SKLRSQLVKRK-NH2 (Ac-KIKHVVKLKEENSKEKSEKSKLRSQLVKRK-NH2; lactam 10-14, 15-19; SMILES CC[C@H](C)[C@H](NC(=O)[C@H](CCCCN)NC(C)=O)C(=O)N[C@@H](CCCCN)C(=O)N[C@@H](Cc1c[nH]cn1)C(=O)N[C@H](C(=O)N[C@H](C(=O)N[C@@H](CCCCN)C(=O)N[C@@H](CC(C)C)C(=O)N[C@@H](CCCCN)C(=O)N[C@H]1CCC(=O)NCCCC[C@@H](C(=O)N[C@H]2CCC(=O)NCCCC[C@@H](C(=O)N[C@@H](CO)C(=O)N[C@@H](CCCCN)C(=O)N[C@@H](CC(C)C)C(=O)N[C@@H](CCCNC(=N)N)C(=O)N[C@@H](CO)C(=O)N[C@@H](CCC(N)=O)C(=O)N[C@@H](CC(C)C)C(=O)N[C@H](C(=O)N[C@@H](CCCCN)C(=O)N[C@@H](CCCNC(=N)N)C(=O)N[C@@H](CCCCN)C(N)=O)C(C)C)NC(=O)[C@H](CCC(=O)O)NC(=O)[C@H](CO)NC(=O)[C@H](CCCCN)NC2=O)NC(=O)[C@H](CO)NC(=O)[C@H](CC(N)=O)NC(=O)[C@H](CCC(=O)O)NC1=O)C(C)C)C(C)C) [Compound 266] | 0.63 | 0.63 | – | 0.63 | – | – | – | 28 | 24 | – | -2.11E04 | 0.84 | -1.77E04 | best improvement in helicity | -9.36E+03 | 0.63 | -5.89E+03 | strong trend towards inhibition of fibrosis
